According to EP4782541A1 (Nanjing Probio Biotech Co., Ltd., dated 2026):

B1: BsAb-12 (bispecific antibody, human IgG1, lambda)
chain: EVQLVESGGGLVQPGGSLRLSCAASGRSFSSFQMGWFRQAPGKEREFVAASGWSGGPTYYWDSVIGRFTISTDNSKNTLYLQMNSLRAEDTAVYYCYEDRVLSGRPVRYWGQGTLVTVSSDKTHTCPPCPAPESTRGPSVFLFPPKPKDTLMISRTPEVTCVVVDVSHEDPEVKFNWYVDGVEVHNAKTKPREEQYNSTYRVVSVLTVLHQDWLNGKEYKCKVSNKALPAPIEKTISKAKGQPREPQVCTLPPSRDELTKNQVSLSCAVKGFYPSDIAVEWESNGQPENNYKTTPPVLDSDGSFFLVSKLTVDKSRWQQGNVFSCSVMHEALHNHYTQKSLSLSPGK
heavy: EVQLVESGGGLVQPGGSLRLSCAASGRSFSSFQMGWFRQAPGKEREFVAASGWSGGPTYYWDSVIGRFTISTDNSKNTLYLQMNSLRAEDTAVYYCYEDRVLSGRPVRYWGQGTLVTVSSGGGGSGGGGSGGGGSEVQLVESGGGLVQPGRSLRLSCAASGFTFNTYAMNWVRQAPGKGLEWVARIRSKYNNYATYYADSVKDRFTISRDDSKSIAYLQMNSLKTEDTAVYYCVRHGNFGNSYVSWFAYWGQGTLVTVSSASTKGPSVFPLAPSSKSTSGGTAALGCLVKDYFPEPVTVSWNSGALTSGVHTFPAVLQSSGLYSLSSVVTVPSSSLGTQTYICNVNHKPSNTKVDKKVEPKSCDKTHTCPPCPAPESTRGPSVFLFPPKPKDTLMISRTPEVTCVVVDVSHEDPEVKFNWYVDGVEVHNAKTKPREEQYNSTYRVVSVLTVLHQDWLNGKEYKCKVSNKALPAPIEKTISKAKGQPREPQVYTLPPCRDELTKNQVSLWCLVKGFYPSDIAVEWESNGQPENNYKTTPPVLDSDGSFFLYSKLTVDKSRWQQGNVFSCSVMHEALHNHYTQKSLSLSPGK
light: QTVVTQEPSLTVSPGGTVTLTCRSSTGAVTTSNYANWVQQKPGQAPRGLIGGTNKRAPGVPARFSGSLLGGKAALTLSGVQPEDEAEYFCALWYSNLWVFGGGTKLTVLGQPKAAPSVTLFPPSSEELQANKATLVCLISDFYPGAVTVAWKADSSPVKAGVETTTPSKQSNNKYAASSYLSLTPEQWKSHRSYSCQVTHEGSTVEKTVAPTECS
notes: also called BsAb-12 CD3×ROR1
B2: BsAb-9 (bispecific antibody, human IgG1, lambda)
chain: EVQLVESGGGLVQPGGSLRLSCAASGFISRFYAMGWYRQAPGKQRELVARISSMGWTYYADSVKGRFTISIDNSKNTLYLQMNSLRAEDTAVYYCNARNLWGQGTLVTVSSDKTHTCPPCPAPESTRGPSVFLFPPKPKDTLMISRTPEVTCVVVDVSHEDPEVKFNWYVDGVEVHNAKTKPREEQYNSTYRVVSVLTVLHQDWLNGKEYKCKVSNKALPAPIEKTISKAKGQPREPQVCTLPPSRDELTKNQVSLSCAVKGFYPSDIAVEWESNGQPENNYKTTPPVLDSDGSFFLVSKLTVDKSRWQQGNVFSCSVMHEALHNHYTQKSLSLSPGK
heavy: EVQLVESGGGLVQPGGSLRLSCAASGFISRFYAMGWYRQAPGKQRELVARISSMGWTYYADSVKGRFTISIDNSKNTLYLQMNSLRAEDTAVYYCNARNLWGQGTLVTVSSGGGGSGGGGSGGGGSEVQLVESGGGLVQPGRSLRLSCAASGFTFNTYAMNWVRQAPGKGLEWVARIRSKYNNYATYYADSVKDRFTISRDDSKSIAYLQMNSLKTEDTAVYYCVRHGNFGNSYVSWFAYWGQGTLVTVSSASTKGPSVFPLAPSSKSTSGGTAALGCLVKDYFPEPVTVSWNSGALTSGVHTFPAVLQSSGLYSLSSVVTVPSSSLGTQTYICNVNHKPSNTKVDKKVEPKSCDKTHTCPPCPAPESTRGPSVFLFPPKPKDTLMISRTPEVTCVVVDVSHEDPEVKFNWYVDGVEVHNAKTKPREEQYNSTYRVVSVLTVLHQDWLNGKEYKCKVSNKALPAPIEKTISKAKGQPREPQVYTLPPCRDELTKNQVSLWCLVKGFYPSDIAVEWESNGQPENNYKTTPPVLDSDGSFFLYSKLTVDKSRWQQGNVFSCSVMHEALHNHYTQKSLSLSPGK
light: B1 light
notes: also called BsAb-09

Columns and labels:
[1] = molecular target: human ROR1 (on CHO-K1/ROR1 cells and ROR1 tumour cell lines) (human) (UniProt Q01973); test: flow cytometry on A375 cells (human ROR1 tumour cell line)
human ROR1 (on CHO-K1/ROR1 cells and ROR1 tumour cell lines) (human), sequence (Q01973 30-937): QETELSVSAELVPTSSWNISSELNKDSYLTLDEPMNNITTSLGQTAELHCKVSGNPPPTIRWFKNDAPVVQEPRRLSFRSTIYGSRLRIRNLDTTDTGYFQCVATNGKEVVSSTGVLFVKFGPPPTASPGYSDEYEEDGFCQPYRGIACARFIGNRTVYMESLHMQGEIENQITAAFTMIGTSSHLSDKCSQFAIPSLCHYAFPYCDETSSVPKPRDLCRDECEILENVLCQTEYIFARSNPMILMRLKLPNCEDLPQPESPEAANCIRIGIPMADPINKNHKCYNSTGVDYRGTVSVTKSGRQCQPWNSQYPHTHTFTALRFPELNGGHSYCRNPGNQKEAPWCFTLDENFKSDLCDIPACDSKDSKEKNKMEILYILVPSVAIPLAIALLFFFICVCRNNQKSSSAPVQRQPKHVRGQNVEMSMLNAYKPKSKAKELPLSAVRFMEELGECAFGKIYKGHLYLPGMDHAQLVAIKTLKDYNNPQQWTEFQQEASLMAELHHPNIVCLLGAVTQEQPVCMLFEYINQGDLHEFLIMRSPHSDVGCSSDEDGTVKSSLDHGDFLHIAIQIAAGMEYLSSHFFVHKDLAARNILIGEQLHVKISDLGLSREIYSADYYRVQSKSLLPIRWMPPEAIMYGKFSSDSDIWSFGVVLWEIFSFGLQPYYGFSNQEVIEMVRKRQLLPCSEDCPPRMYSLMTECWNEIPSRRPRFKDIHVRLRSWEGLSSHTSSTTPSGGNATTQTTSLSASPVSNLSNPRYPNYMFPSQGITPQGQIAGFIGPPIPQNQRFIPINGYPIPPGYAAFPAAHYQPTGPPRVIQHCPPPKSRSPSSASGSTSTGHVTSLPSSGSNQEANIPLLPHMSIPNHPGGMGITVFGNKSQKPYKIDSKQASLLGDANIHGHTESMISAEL

[2] = molecular target: T1, human CD3 (on Jurkat cells) (human, UniProt P07766 23-207; P09693 23-182; P04234 22-171); test: flow cytometry on Jurkat cells expressing human CD3
T1 construct: whole, on cells
T1 sequence (P07766 23-207, chain 1 of 3): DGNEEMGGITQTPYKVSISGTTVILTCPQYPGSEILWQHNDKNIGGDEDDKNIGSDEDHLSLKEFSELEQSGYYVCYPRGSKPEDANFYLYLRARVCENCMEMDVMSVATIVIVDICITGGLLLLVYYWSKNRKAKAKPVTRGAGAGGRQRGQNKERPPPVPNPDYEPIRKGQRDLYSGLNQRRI
T1 sequence (P09693 23-182, chain 2 of 3): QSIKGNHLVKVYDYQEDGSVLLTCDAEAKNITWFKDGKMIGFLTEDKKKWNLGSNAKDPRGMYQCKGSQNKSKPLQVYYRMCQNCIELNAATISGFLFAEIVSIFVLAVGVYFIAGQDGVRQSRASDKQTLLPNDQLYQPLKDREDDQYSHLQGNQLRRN
T1 sequence (P04234 22-171, chain 3 of 3): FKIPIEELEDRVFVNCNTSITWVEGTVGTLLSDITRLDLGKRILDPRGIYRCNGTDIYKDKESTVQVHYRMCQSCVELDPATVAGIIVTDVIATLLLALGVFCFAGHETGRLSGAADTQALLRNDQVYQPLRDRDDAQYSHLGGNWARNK

[3] = molecular target: human ROR1 (on CHO-K1/ROR1 cells and ROR1 tumour cell lines) (human) (UniProt Q01973); test: flow cytometry on CHO-K1/ROR1 cells overexpressing human ROR1
[4] = molecular target: human ROR1 (on CHO-K1/ROR1 cells and ROR1 tumour cell lines) (human) (UniProt Q01973); test: flow cytometry on PA-1 cells (human ROR1 tumour cell line)
[5] = molecular target: human ROR1 (on CHO-K1/ROR1 cells and ROR1 tumour cell lines) (human) (UniProt Q01973); test: flow cytometry on PSN-1 cells (human ROR1 tumour cell line)
[6] = molecular target: human ROR1 (on CHO-K1/ROR1 cells and ROR1 tumour cell lines) (human) (UniProt Q01973); test: flow cytometry on A549 cells (human ROR1 tumour cell line)
[7] = molecular target: human ROR1 (on CHO-K1/ROR1 cells and ROR1 tumour cell lines) (human) (UniProt Q01973); test: flow cytometry on Jeko-1 cells (human ROR1 tumour cell line)
[8] = molecular target: human ROR1 (on CHO-K1/ROR1 cells and ROR1 tumour cell lines) (human) (UniProt Q01973); test: cell-based or functional assay
[9] = molecular target: human ROR1 (on CHO-K1/ROR1 cells and ROR1 tumour cell lines) (human) (UniProt Q01973); test: flow cytometry on MDA-MB-231 cells (human ROR1 tumour cell line)
[10] = molecular target: T2, human ROR1 (on CHO-K1/ROR1 cells and ROR1 tumour cell lines) (human, UniProt Q01973 30-937); test: flow cytometry on A375 cells (human ROR1 tumour cell line)
T2 construct: whole, on cells; also called receptor tyrosine kinase-like orphan receptor 1
T2 sequence (Q01973 30-937): as the sequence (Q01973 30-937) above

human ROR1 protein [11] = molecular target: T3, human ROR1 protein (human, UniProt Q01973 30-403, limits assumed); test: SPR (Biacore 8K); human ROR1 amine-coupled at 0.05 ug/mL as ligand, antibody as analyte
T3 construct: Recombinant antigen of the SPR assay; also called ROR1 (SPR ligand)
T3 sequence (Q01973 30-403 limits assumed): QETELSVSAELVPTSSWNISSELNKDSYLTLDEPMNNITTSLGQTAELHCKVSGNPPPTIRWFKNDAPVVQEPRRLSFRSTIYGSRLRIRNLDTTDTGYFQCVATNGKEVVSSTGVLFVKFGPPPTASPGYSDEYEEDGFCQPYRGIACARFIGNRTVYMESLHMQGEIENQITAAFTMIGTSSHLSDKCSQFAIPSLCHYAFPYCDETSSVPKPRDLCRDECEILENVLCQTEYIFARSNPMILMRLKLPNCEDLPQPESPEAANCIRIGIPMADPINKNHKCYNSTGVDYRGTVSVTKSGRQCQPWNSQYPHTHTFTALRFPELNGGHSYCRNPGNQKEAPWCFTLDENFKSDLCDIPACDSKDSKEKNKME

human ROR1 protein [12] = molecular target: T3, human ROR1 protein; test: SPR (Biacore 8K); human ROR1 amine-coupled at 12.50 ug/mL as ligand, antibody as analyte
[13] = molecular target: T2, human ROR1 (on CHO-K1/ROR1 cells and …); test: flow cytometry on PA-1 cells (human ROR1 tumour cell line)
human ROR1 protein [14] = molecular target: T3, human ROR1 protein; test: SPR (Biacore 8K); human ROR1 amine-coupled at 62.50 ug/mL as ligand, antibody as analyte
human ROR1 protein [15] = molecular target: T3, human ROR1 protein; test: SPR (Biacore 8K); human ROR1 amine-coupled at 0.50 ug/mL as ligand, antibody as analyte
[16] = molecular target: T2, human ROR1 (on CHO-K1/ROR1 cells and …); test: cell-based or functional assay
human ROR1 protein [17] = molecular target: T3, human ROR1 protein; test: SPR (Biacore 8K); human ROR1 amine-coupled at 2.50 ug/mL as ligand, antibody as analyte
[18] = molecular target: T2, human ROR1 (on CHO-K1/ROR1 cells and …); test: flow cytometry on PSN-1 cells (human ROR1 tumour cell line)
[19] = molecular target: T2, human ROR1 (on CHO-K1/ROR1 cells and …); test: flow cytometry on MDA-MB-231 cells (human ROR1 tumour cell line)
[20] = molecular target: T2, human ROR1 (on CHO-K1/ROR1 cells and …); test: flow cytometry on Jeko-1 cells (human ROR1 tumour cell line)
human ROR1 protein [21] = molecular target: T3, human ROR1 protein; test: SPR (Biacore 8K); human ROR1 amine-coupled at 0.10 ug/mL as ligand, antibody as analyte
[22] = molecular target: T2, human ROR1 (on CHO-K1/ROR1 cells and …); test: flow cytometry on CHO-K1/ROR1 cells overexpressing human ROR1
[23] = molecular target: T2, human ROR1 (on CHO-K1/ROR1 cells and …); test: flow cytometry on A549 cells (human ROR1 tumour cell line)

Row | Molecule | EC50 [2] [nM] | Kd (human ROR1 protein [11]) [nM] | koff (human ROR1 protein [11]) [s⁻¹] | kon (human ROR1 protein [11]) [M⁻¹ s⁻¹] | Kd (human ROR1 protein [12]) [nM] | koff (human ROR1 protein [12]) [s⁻¹] | kon (human ROR1 protein [12]) [M⁻¹ s⁻¹] | Kd (human ROR1 protein [14]) [nM] | koff (human ROR1 protein [14]) [s⁻¹] | kon (human ROR1 protein [14]) [M⁻¹ s⁻¹] | Kd (human ROR1 protein [15]) [nM] | koff (human ROR1 protein [15]) [s⁻¹] | kon (human ROR1 protein [15]) [M⁻¹ s⁻¹] | Kd (human ROR1 protein [17]) [nM] | koff (human ROR1 protein [17]) [s⁻¹] | kon (human ROR1 protein [17]) [M⁻¹ s⁻¹] | Kd (human ROR1 protein [21]) [nM] | koff (human ROR1 protein [21]) [s⁻¹] | kon (human ROR1 protein [21]) [M⁻¹ s⁻¹] | EC50 [22] [nM] | other results
1 | EMB-07 (bispecific antibody) | 4.45 |  |  |  |  |  |  |  |  |  |  |  |  |  |  |  |  |  |  |  | EC50 [1]: 2.5 nM; EC50 [3]: 2.39 nM; EC50 [4]: 5.06 nM; EC50 [5]: 6.09 nM; EC50 [6]: 4.01 nM; EC50 [7]: 7.15 nM; EC50 of T cell activation based on reporter gene (luciferase), target cells A375 [8]: 0.428 nM; EC50 of T cell activation based on reporter gene (luciferase), target cells Jeko-1 [8]: 0.155 nM; EC50 of T cell activation based on reporter gene (luciferase), target cells MDA-MB-231 [8]: 0.0644 nM; EC50 [9]: 3.84 nM
2 | B1 | 1.39 | 0.649 | 0.000421 | 649000 | 0.0349 | 5.83e-05 | 1.67e+06 | 0.0267 | 2.83e-05 | 1.06e+06 | 0.354 | 0.000207 | 585000 | 0.106 | 8.37e-05 | 788000 | 0.359 | 0.000169 | 471000 | 0.223 | EC50 [10]: 0.155 nM; EC50 [13]: 0.547 nM; EC50 of T cell activation based on reporter gene (luciferase), target cells A375 [16]: 0.0117 nM; EC50 of T cell activation based on reporter gene (luciferase), target cells Jeko-1 [16]: 0.00748 nM; EC50 of T cell activation based on reporter gene (luciferase), target cells MDA-MB-231 [16]: 0.00258 nM; EC50 [18]: 1.17 nM; EC50 [19]: 0.308 nM; EC50 [20]: 0.133 nM; EC50 [23]: 0.415 nM
3 | B2 | 1.38 | 0.0811 | 0.00143 | 1.76e+07 | 0.00664 | 0.000242 | 3.65e+07 | 0.00682 | 0.000187 | 2.73e+07 | 0.0216 | 0.00083 | 3.85e+07 | 0.0129 | 0.000521 | 4.05e+07 | 0.0497 | 0.00113 | 2.28e+07 | 0.0864 | 
